Laboratory results reported in article PMC5128727, “Metalloprotease SPRTN/DVC1 Orchestrates Replication-Coupled DNA-Protein Crosslink Repair”.

Biological target: T1, SPRTN WT (human, UniProt Q9H040 1-489)
T1 sequence: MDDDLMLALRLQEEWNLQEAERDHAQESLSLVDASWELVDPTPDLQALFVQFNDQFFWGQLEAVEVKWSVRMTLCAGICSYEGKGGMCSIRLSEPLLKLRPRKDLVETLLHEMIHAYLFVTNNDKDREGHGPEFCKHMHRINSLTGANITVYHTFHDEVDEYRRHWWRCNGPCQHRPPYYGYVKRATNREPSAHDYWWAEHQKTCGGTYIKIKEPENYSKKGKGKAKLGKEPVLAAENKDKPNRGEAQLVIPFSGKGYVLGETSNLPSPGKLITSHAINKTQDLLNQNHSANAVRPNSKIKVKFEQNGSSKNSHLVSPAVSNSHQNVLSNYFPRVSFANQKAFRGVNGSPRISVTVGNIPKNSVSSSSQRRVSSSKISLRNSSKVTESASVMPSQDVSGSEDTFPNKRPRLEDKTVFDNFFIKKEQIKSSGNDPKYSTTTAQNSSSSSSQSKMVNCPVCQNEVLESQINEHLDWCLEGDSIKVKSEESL
Assay: fluorescence polarization; affinity similar to dsDNA; Probe annealing buffer: 10 mM HEPES pH 7.5, 50 mM NaCl; FP assay buffer and temperature not in the material
Details: protein: recombinant; tags: His-ZB tag cleaved by TEV; label: FITC (position not in material); single strand

B1: ssDNA (OD1) (ssDNA)
DNA: ATCGATAGTCGGATCCTCTAGACAGCTCCATGTAGCAAGGCACTGGTAGAATTCGGCAGCGTC
binding result: binds
